Results on three molecules are retold here after PMC7881012, “Human ACE2 peptide-mimics block SARS-CoV-2 pulmonary cells infection” (Communications Biology, 2021).

First the molecules themselves.
B1: P10 (designed binder)
peptide: SALEEQYKTFLDKFMHELEDLLYQLAL
notes: also called peptide P10; source: synthetic peptide (solid-phase synthesis on rink amide resin, HPLC purified)

Ends that are not written are not given here.

This assay deals with T1, Fc-tagged 2019-nCoV RBD-SD1 (SARS-CoV-2 (2019-nCoV), UniProt P0DTC2 319-591).
T1 construct: source: bought: Sanyou Biopharmaceuticals Co. Ltd
The assay can be described thus: BLI. As to conditions: both partners purified.
For orientation: Kd means the equilibrium constant for the complex coming apart. Low readings indicate a tighter complex, high ones a looser complex. B1 yielded a Kd of 0.03 ± 0.01 nM.
With SALEEQLKTFLDKFMHELEDLLYQLAL-NH2 (designed binder, also called peptide P8) [P8], the Kd is 24 ± 11 nM.
In the case of SALEEQYKTFLDKFMHELEDLLYQLSL (designed binder, also called peptide P9) [P9], binding was characterised by a dissociation constant (Kd) of 0.09 ± 0.08 nM.
